Test results taken from patent US20100151524A1 (DARWIN DISCOVERY, published 2010).

B4: BMP-6 (ligand, UniProt P22004 382-513, looked up)
chain: QQSRNRSTQSQDVARVSSASDYNSSELKTACRKHELYVSFQDLGWQDWIIAPKGYAANYCDGECSFPLNAHMNATNHAIVQTLVHLMNPEYVPKPCCAPTKLNAISVLYFDDNSNVILKKYRNMVVRACGCH

Assays:
[1] = biological target: B4; experiment: ELISA-based competition: sclerostin coated, BMP-6, DAN titrated; competitor sclerostin
[2] = biological target: B4; experiment: ELISA-based competition: sclerostin coated (300 ng/well), BMP-6 11 nM, receptor-FC titrated; competitor sclerostin
[3] = biological target: B4; experiment: ELISA-based competition: sclerostin coated, BMP-6 11 nM; competitor sclerostin
[4] = biological target: B4; experiment: ELISA-based competition: sclerostin coated, BMP-6, receptor-FC titrated; competitor sclerostin
Method: (§1) A 10-fold molar excess of the BMP receptor was sufficient to reduce binding of sclerostin to BMP-6 by approximately 50%. This competition was also observed with a BMP receptor II-FC fusion protein (IC₅₀=36 nM) and DAN (IC₅₀=43 nM).

[5] = biological target: T1, FLAG epitope-tagged Beer (human Beer, secretion signal removed, C-terminal FLAG tag, from … (human, UniProt Q9BQB4 24-213)); experiment: anti-FLAG immunoprecipitation of FLAG-tagged Beer incubated with BMP-4, anti-BMP-4 western blot; Cerberus with BMP-4 as positive control on the left part
T1 construct: also called FLAG-Beer; H. Beer
T1 sequence: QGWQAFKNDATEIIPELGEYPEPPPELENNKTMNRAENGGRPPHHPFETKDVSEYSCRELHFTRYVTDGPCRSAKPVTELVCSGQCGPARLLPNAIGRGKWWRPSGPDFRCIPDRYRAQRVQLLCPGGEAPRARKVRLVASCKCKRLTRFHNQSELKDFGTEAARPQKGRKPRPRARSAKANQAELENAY
Method: The interaction of Beer with proteins from different phylogenetic arms of the TGF-β superfamily were studied using immunoprecipitation methods. Purified TGFβ-1, TGFβ-2, TGFβ-3, BMP-4, BMP-5, BMP-6 and GDNF were obtained from commerical sources (R&D systems; Minneapolis, Minn.). A representative protocol is as follows. Partially purified Beer was dialyzed into HEPES buffered saline (25 mM HEPES 7.5, 150 mM NaCl). Immunoprecipitations were done in 300 ul of IP buffer (150 mM NaCl, 25 mM Tris pH 7.5, 1 mM EDTA, 1.4 mM β-mercaptoethanol, 0.5% triton×100, and 10% glycerol). […] The proteins were resolved by SDS PAGE and Beer associated BMP-5 was detected by western blot using anti-BMP-5 antiserum (Research Diagnostics, Inc) (see FIG. 5).

[6] = biological target: T1, FLAG epitope-tagged Beer (human Beer, …); experiment: Beer ligand binding assay (FLAG-Beer captured on an anti-FLAG plate, BMP-5 titrated, ELISA detection), FIG. 6
Method: FLAG-Beer protein (20 ng) is added to 100 ul PBS/0.2% BSA and adsorbed into each well of 96 well microtiter plate previously coated with anti-FLAG monoclonal antibody (Sigma; St Louis Mo.) and blocked with 10% BSA in PBS. This is conducted at room temperature for 60 minutes. This protein solution is removed and the wells are washed to remove unbound protein. BMP-5 is added to each well in concentrations ranging from […] to 500 nM in PBS/0.2% BSA and incubated for 2 hours at room temperature. The binding solution is removed and the plate washed with three times with 200 ul volumes of PBS/0.2% BSA. BMP-5 levels are then detected using BMP-5 anti-serum via ELISA (F. M. Ausubel et al (1998) Current Protocols in Mol. Biol. Vol 2 11.2.1-11.2.22). Specific binding is calculated by subtracting non-specific binding from total binding and analyzed by the LIGAND program (Munson and Podbard, Anal. Biochem., 107, p 220-239, (1980).

[7] = biological target: T2, sclerostin (coated on the ELISA surface, Example 12) (Homo sapiens (Human), UniProt Q9BQB4 24-213); experiment: ELISA, sclerostin-coated surface (300 ng/well), BMP-6 in solution
T2 construct: also called SOST; Beer
T2 sequence: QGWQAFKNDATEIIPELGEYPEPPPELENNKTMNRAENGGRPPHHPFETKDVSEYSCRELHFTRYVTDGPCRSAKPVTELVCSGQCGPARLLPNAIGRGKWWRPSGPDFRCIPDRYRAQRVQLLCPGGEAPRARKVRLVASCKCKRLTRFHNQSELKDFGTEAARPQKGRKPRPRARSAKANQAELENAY
Method: as §1

DAN (competitor in Example 12)
IC50 [1]: 43 nM

BMP receptor IA (FC fusion construct)
IC50 [2]: 114 nM | reduction of binding of sclerostin to BMP-6 at a 10-fold molar excess of receptor [3]: 50%

B1: BMP receptor II-FC fusion protein (Fc fusion)
chain: SQNQERLCAFKDPYQQDLGIGESRISHENGTILCSKGSTCYGLWEKSKGDINLVKQGCWSHIGDPQECHYEECVVTTTPPSIQNGTYRFCCCSTDLCNVNFTENFPPPDTTPLSPPHSFNRDET
notes: also called BMPR-II; type II receptor; not shown: Fc part and any linker
IC50 [4]: 36 nM

B2: BMP-4 (ligand, UniProt P12644 293-408, looked up)
chain: SPKHHSQRARKKNKNCRRHSLYVDFSDVGWNDWIVAPPGYQAFYCHGDCPFPLADHLNSTNHAIVQTLVNSVNSSIPKACCVPTELSAISMLYLDEYDKVVLKNYQEMVVEGCGCR
binding result [5]: no binding

B3: recombinant human BMP-5 protein (R&D systems) (ligand, UniProt P22003 317-454, looked up)
chain: AANKRKNQNRNKSSSHQDSSRMSSVGDYNTSEQKQACKKHELYVSFRDLGWQDWIIAPEGYAAFYCDGECSFPLNAHMNATNHAIVQTLVHLMFPDHVPKPCCAPTKLNAISVLYFDDSSNVILKKYRNMVVRSCGCH
notes: Commercial protein
Kd [6]: 15 to 30 nM

B4
Kd [7]: 3.4 nM
